This series deals with pyruvate dehydrogenase complex (PDHC) immuno-captured from tissue lysates of E3 mice.

B1: TAT-LAD fusion protein (His tag, TAT peptide, human LAD precursor) (protein)
chain: MGSSHHHHHHSSGLVPRGSHMRKKRRQRRRGSDPQSWSRVYCSLAKRGHFNRISHGLQGLSAVPLRTYADQPIDADVTVIGSGPGGYVAAIKAAQLGFKTVCIEKNETLGGTCLNVGCIPSKALLNNSHYYHMAHGTDFASRGIEMSEVRLNLDKMMEQKSTAVKALTGGIAHLFKQNKVVHVNGYGKITGKNQVTATKADGGTQVIDTKNILIATGSEVTPFPGITIDEDTIVSSTGALSLKKVPEKMVVIGAGVIGVELGSVWQRLGADVTAVEFLGHVGGVGIDMEISKNFQRILQKQGFKFKLNTKVTGATKKSDGKIDVSIEAASGGKAEVITCDVLLVCIGRRPFTKNLGLEELGIELDPRGRIPVNTRFQTKIPNIYAIGDVVAGPMLAHKAEDEGIICVEGMAGGAVHIDYNCVPSVIYTHPEVAWVGKSEEQLKEEGIEYKVGKFPFAANSRAKTNADTDGMVKILGQKSTDRVLGAHILGPGAGEMVNEAALALEYGASCEDIARVCHAHPTLSEAFREANLAASFGKSINFE
In the case of B1, the “PDHC enzymatic activity of immuno-captured PDHC, the three organs at 24 hours post-treatment, percent increase” value was “increase in PDHC enzymatic activity (40-65%) was also evident in the three organs at 24 hours post-treatment”.

The values are drawn from patent US20170224783.
